Test results from publication PMC12119571, “The Porphyromonas gingivalis RNA-binding protein is required for growth in high levels of zinc and persistence with host cells”.

Tests used:
[1] = biological target: T1, RbpPg1 (Porphyromonas gingivalis W83) (UniProt Q7MWI3); test: pull-down of total RNA, RNA-seq; conditions: EMSA: LightShift Chemiluminescent RNA EMSA kit, on ice 30 min, TBE 10% gel at 4 C (buffer in Suppl. Tables 3-5, not in the material); His pulldown: 1 h at 4 C …
T1 sequence: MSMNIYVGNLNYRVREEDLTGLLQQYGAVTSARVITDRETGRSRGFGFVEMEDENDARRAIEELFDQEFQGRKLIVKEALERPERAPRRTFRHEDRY

[2] = system: RbpPg1 (Halo) (Porphyromonas gingivalis W83); test: pull-down of total RNA, RNA-seq; conditions: EMSA: LightShift Chemiluminescent RNA EMSA kit, on ice 30 min, TBE 10% gel at 4 C (buffer in Suppl. Tables 3-5, not in the material); His pulldown: 1 h at 4 C …
RbpPg1 = biological target: T2, RbpPg1 (Porphyromonas gingivalis W83, UniProt Q7MWI3 1-97); test: EMSA; shift reduced by unlabeled IRE RNA; EMSA: LightShift Chemiluminescent RNA EMSA kit, on ice 30 min, TBE 10% gel at 4 C (buffer in Suppl. Tables 3-5, not in the material); His pulldown: 1 h at 4 C; conditions: protein: recombinant; tags: His-tag (pET30a, NcoI/XhoI); label: 3' biotin; IRE stem loop (hairpin)
T2 sequence: T1 sequence

PG2090 zinc efflux transcript
binding signal (fold enrichment over HU-beta) [1]: 71.3 | binding signal (fold enrichment over HU-beta) [2]: 639

UCCUGCUUCAACAGUGCUUGGACGGAAC (structured_RNA) [IRE control RNA (LightShift kit)]
binding result (RbpPg1): binds
